From article PMC8399149, “Engineering of Yeast Old Yellow Enzyme OYE3 Enables Its Capability Discriminating of (E)-Citral and (Z)-Citral” (Molecules, 2021) come the findings set out here.

Substrate in series [1]: CC(C)=CCC/C(C)=C/C=O
The series is described as follows: purified protein. As to conditions: FMN, NADPH active site. The series is classed as biochemical, Saccharomyces cerevisiae.

Substrate in series [2]: CC(C)=CCC/C(C)=C\C=O
The series is described as follows: purified protein. To be noted: FMN; NADPH active site; H191/N194 hydrogen bonds with the carbonyl oxygen of citral, hydride from FMNH2 to Cβ, Y196 proton donor (docking). It counts as biochemical, Saccharomyces cerevisiae.

Where [3] appears, read: H191/N194 hydrogen bonds with the carbonyl oxygen of citral, hydride from FMNH2 to Cβ, Y196 proton donor (docking).

B1: old yellow enzyme OYE3 (Saccharomyces cerevisiae S288C) (protein)
chain: PFVKGFEPISLRDTNLFEPIKIGNTQLAHRAVMPPLTRMRATHPGNIPNKEWAAVYYGQRAQRPGTMIITEGTFISPQAGGYDNAPGIWSDEQVAEWKNIFLAIHDCQSFAWVQLWSLGWASFPDVLARDGLRYDCASDRVYMNATLQEKAKDANNLEHSLTKDDIKQYIKDYIHAAKNSIAAGADGVEIHSANGYLLNQFLDPHSNKRTDEYGGTIENRARFTLEVVDALIETIGPERVGLRLSPYGTFNSMSGGAEPGIIAQYSYVLGELEKRAKAGKRLAFVHLVEPRVTDPSLVEGEGEYSEGTNDFAYSIWKGPIIRAGNYALHPEVVREQVKDPRTLIGYGRFFISNPDLVYRLEEGLPLNKYDRSTFYTMSAEGYTDYPTYEEAVDLGWNKN
For the protein B1, in the series “purified protein [1]” (setting [3]), the Km was 50 ± 10 µM, the Vmax worked out at 0.16 µmol/min/mg, the kcat came out at 0.13 ± 0.02 s⁻¹ and the kcat/Km is 2760 ± 110 M⁻¹ s⁻¹. In “purified protein [2]”, the Km was found to be 70 ± 10 µM, the Vmax worked out at 0.12 µmol/min/mg, the kcat amounted to 0.1 ± 0.01 s⁻¹ and the kcat/Km worked out at 1490 ± 80 M⁻¹ s⁻¹.

B2: old yellow enzyme OYE3 (Saccharomyces cerevisiae S288C; S297F/W117G) (protein)
chain: MPFVKGFEPISLRDTNLFEPIKIGNTQLAHRAVMPPLTRMRATHPGNIPNKEWAAVYYGQRAQRPGTMIITEGTFISPQAGGYDNAPGIWSDEQVAEWKNIFLAIHDCQSFAWVQLGSLGWASFPDVLARDGLRYDCASDRVYMNATLQEKAKDANNLEHSLTKDDIKQYIKDYIHAAKNSIAAGADGVEIHSANGYLLNQFLDPHSNKRTDEYGGTIENRARFTLEVVDALIETIGPERVGLRLSPYGTFNSMSGGAEPGIIAQYSYVLGELEKRAKAGKRLAFVHLVEPRVTDPFLVEGEGEYSEGTNDFAYSIWKGPIIRAGNYALHPEVVREQVKDPRTLIGYGRFFISNPDLVYRLEEGLPLNKYDRSTFYTMSAEGYTDYPTYEEAVDLGWNKN
Take B2: in the series “purified protein [1]” (accommodation similar to OYE3 (docking)), the Km was 90 µM.

As a reminder, the Km is the concentration of substrate that gives half-maximal velocity. A word on the Vmax: it is the rate approached at saturating substrate. The kcat is the maximal rate divided by the concentration of active sites. What is called kcat/Km is the second-order rate constant that governs catalysis at low substrate concentration.
